Test: label from the status in PepcDB records

Row | Sequence | protein production
1 | MSPRSIAMCGRCGIRARHSVAPDCCLSVRQATNKCPAVEHHSHGGRRPCTANGGVAFDRFVMTNRFSPRARSTRIVSKVVWRKRSGRDDENKKTRGEHDMSASVQSALSGLVLAAAVAMPALADGLKDEIAPTGKLRVAIAISPAGGAFWSTRTETGYAGVPVDLGKEMAAQLGVGVEYVVHQNSGQITDAASKGTWDVTWLPKDPERESKMMFGPIYEVADATYIVKAGSNVTSFASLDQPGIKVAAVNATTTMRGAVAHLRNAEVTGYQTYDEIFGLLKSGEIDAFALSRDQLNKMAQKIPGTKVLDETFKKTVTAVAVPLGHSLALTFVTKFMNEATINGTLRKAYDNNGLKDSPIRTE | failed
2 | MDPSEYPFDIKAYKRQSEIEEMYIINRFRERRNKIGEDYPPHLSNSDNYFTQRYDAAKKEGISPLPKYTTTMRMFAYGVAADAVDEYSKIGGTTTLECLRRFCKGIIKLYETEYLRAPTQDDLQRILRVSEMRGFPGIIGSINCMQWEWKTCPTVWEGNTTRVNFFVSQHPYNIAYYLADGIYPSYPTFVKSIRLPQSEPDKLFVQRQEACHKDIERAFGVLQARFKIIRKPAGLWDIFELAIIMRSCKWVEYTTTILDPSATPICKSCA | failed
3 | MIGFLTDWGLKSHYVGVAKAVIKRINPSAEIIDITHEVEPFNVRKASHVLYRASLDFPPSTVFLVVVDYGVGTSRKAIVMKTKNDQYFVAPDNGVLTVVAEEYGVAEIREIENRELFYKKNPSFTFHGRDIFAPVAAHLDMGLPLERVGDRLLSYEVLKMRKPVVENEKVIGEVAIVDTFGNVSTNIPFDLFLKLSVDFDDVVRVRVGRKEFKAAVAKAFGDVDTGELLVHPDSAGFLEIAVNLGDASQVLSVKEGDEIEICR | not failed
4 | RPDVSRQSQFHTMALVNLSAKMIESCYFLRHFEQQWLLRFHLQAESVGLFSEGLLAFDGDGRICAANQSALNLLGTVRGGVLGKPLECFFACSHDEMFSRATPGG | failed
5 | MLLHLSTWQEVEAYLQQSKGIIFPIGSTEQHGPTGLIGTDAICAEAIAAGVGDATGAIVGPTINVGMALHHTAFPGTISLRPSTLIQVVRDYVTCLAKAGFSKFYFINGHGGNIATLKAAFSETYAHLEDLQIANAQQVQCQVANWFMCGSVYKLAKELYGDQEGSHATPSEVALTQYVYPEAIKQAPLSPEVASGHRIYSAADFRVRYPDGRMGSNPGLATPEHGKQFYDLAVKELSNGYLEFVNAD | not failed
6 | MSDHEVTGGVSLKERVAIVLVEPQSPGNVGMVCRAMKNMGLGELRIVKGCRLDHPEALKFAVSARDLLERARVFESLEDALSDTELSVATTRRHGKYRQEIFSPKEIVSKFAANLAGNRAALVFGREDNGLTTDELSLCRWHATIPSSEEYGSLNLAQAVMVFCYELFTSLGSRTVGGEDRPLAGSAETEPLFEHMERTLMRIGYLNPQNPAHLMRSLRRIFARSELDSREVAILRGMMTQIDWAADQFKGKKGA | failed
7 | MRRLVLAALLAATSLTTAKAGDLLIHGGPIHTGVEAAPTAEAVLIRDDKILFVGPLAAAKAKAAKDVRAIDLKGAAAYPGFVDAHAHLTGIGLRELTLNLDQVKSVAELVAAVKAYAAAHPEGPISGRGWIETHWPEKRFPTKADLDAAAPGRIVVLGRSDGHASVASSAALAKAGITAATVPPPGGDILKGPDGQPDGMLIDHAQALVRNVIPPPNQALKREALRKAGQLYAARGWTGMANMSVMAEDLSLLRDEAAKGNFHIRIDNYMDPSGAEEVLTKGPQTDATGLIRVQGIKLYMDGALGSRGAALLEPYSDADTLGLQLTQPEQGLALMKRAKAAGAQVAMHAIGDRGNRLVLDWFEQSLGAEAKAARWRNEHSQIVADTDVPRFAKLGVIASMQPSHAIGDLFFAPARLGKARLHEGYRWADFLKADVVVAAGSDAPVEVGDPRIEFYAAVYRHSLDGFANADWHLDQAVSRAEALKMLTLAPAYAVFREKELGTLEAGKKADVTAFDRDLMTVEPKAILTAQPVLTVVDGKVVYSR | failed
8 | MNNLINNPLFGILLTLFAFEIGMTIYKKTKIPLLNPLLIAIALVIAVLVSCHISFETYNIGGSFINAFLGPATVILAVPLYKQLQLLKNHFVPIMTGIIVGSFASMCCVIIMGYFLGVNHELIASLVPKSVTTPIGVEVASGLGGIPSITVIAVIITGITGAIIAPMVCKLLKIDHEVAMGVSMGTAAHAVGTTKALEIGETHGAMSSLSIGVAGLITVFLAPPIYMLSALILKFV | failed
9 | PPLPLVYERIMLKGKGAMHSSTGLAIPASEIIDVMPPELLRFLIARVNPSRHIDFDP | failed
10 | MNLRPYQHTIVDFILTHPRCNLFVPMGLGKTVATLTALDVLLVVEDIAPILVIAPLRVAATTWPDEVAKFPHLRHLRVSVVVGSAAARRHALEQEADIYCINYDTLKWLVEFYKDRWPFRMVVADECSKLKGFRLRQGTRRARALATHVHTKVERYVGLTGTPAPNGLQDLWALMWMVDRGARLGTHFKAFIDRWFRAMQIGSDPHAVRFVPTPHASQEIQDKIRDICLSLDPHAYFDLCQPIVNTIRVALPAHAQRLYKAMEQDMFIALECGAEVEAFNAASKTIKCLQLANGALYTDDTRQAWEVVHDAKLEALHDIIEEAAGMPVLVAYHFKSDVARLQRAFPKGRALDKHPDTIRDWNAGNIPVLFAHPASAGHGLNLQDGGNILAFFGHWWDLEQYQQIIERIGPTRQAQAGHTRPVFIHHIVAAGTVDELVMARRESKREVQDLLLEAVKRRETGKPLTSQGAIAL | failed
11 | MEFHLPSVPMRKILSYLDAFSLLQIAQVNKRWNTFASTDVLWRKFCLKRWFFYEVVTLELLGTESWKQFFVCRTRQERAKSRAKPEDFTYKEIPVEIGAPRNAYYISGCGLTRDGQGKSVICVVTSMNTISTWDLHKGAVTWVSPVQPSYIKILATLPEMHIAVTVDIESTIKLWDCHNREALATNNMLSSCQSLKAVFTKDGPVVLAGDTSGNLLIFRIPDLHLISRVHVFQYGINELYCSPQKKWVFLSKKHSQILPKVFFMSSLLRTSEFSAPASTILSFPLCQRAFWTPRREDRITLMSIKGSKKITTFVTFDIKLEKEEIGNKIRVKEYAIANFSLKKFEDTLEWMGVSDKNVIVCSTGSSLLIYSITGLHLQTFPYGPGEILRLSVDPLHVIVTFIDGSLELFAWEERSPLLRRCYRLYNKRHMLHRRFVNKTLCDDVSIVRVMTNVPSSSFLMVYTLNNGS | failed
12 | MVRCVRLVEAGSVVRYLSTSICRPVVDAGSRALCLQEWADSQQVKEKQYSRDVQRAAALNIYRIPPSSRKPALCPTPRDRLEYDEDRLEHIAYVRARELHTLEVTGLETVAQSKAHVASLEGLIPEDKVVLLAGSPLQNEATLGQCGVEALTTLEVVGRRLGGNNCLSLQVNPVQPARYLWTTLHSSKQGEPNSSANHRCS | failed
13 | MPLNRNHSELRSGKVNLKNGDPFTIALFGVDSDEKRKQQGGGERSDTIMVLSINPKEKKTELVSIPRDTKAEIAGRGTEEKINHAYAYGGPNMAVKTIEKLMNVPIDHYATIDMDGLHDMIDTLGGVDVVSNSTFTMGANHFVKGEKTHVDGDAAMDFIRSRKEDGAGGDFGRQERQQLILEAMADKMTSASSITHFNTLMNQIQKNVKTDLKLGDLNTIRTKYKDANDQVNRHQLEGEGGIQNDGLYYFIPSDASKNENTQLLRDNLNLLEHHHHHH | not failed
14 | MIEITFLGGGGGRFVTITQVRATGGFFIKASKNIYVDPGPGALVRMWRYKIDPRKVDVLFISHRHTDHCNDAEVLVEGMTYGVTKKRGTLIGSKSVVHGDENHTPALSKYHLDALEEVHAPNPGDRFKIGEDEMIITPSLHSDPTTIGFRLKTSYGDISYIPDTEYFEELVKWHDGARVIIAAVTRPRDMRIPFHLSSEDAVYLLKSMKQKPEVFIMTHAGMKMHFAGPYKEAQFIQNLTGVKTYVAKEGFKVSIGKEISVKTLRPARFVLEHHHHHH | not failed
15 | MIHQIESVQAGKKIYFLSDFHLGVPSDEESWKREKKIIRFLDSITPAAQAVFLLGDIFDFWFEYKHVIPKGFARLQGKIAQLTDSGIPVYLYTGNHDLWMFGYLEKELGVTVFHKPIDWEIAGKKFLIGHGDGLGPGDFVYKCTKKVFVNPFFQWVFKMTPPAIGMGIAKFWSGKSRQHNTDDRFFEEKEFLWQYCKEQNVLKHRSYYIFGHRHMPLDLPVGDSARYVNIGDWIKFDTFAEFDGNELKLISWKETSEPYSL | failed
16 | MPALACVDTSFVPPAYAFSDTAGDVFIPASSPTSAAVVVDRWSPSLSSSLYRIDGWGAPYFIANSSGNISVRPHGSETLPHQDIDLLKIVKKVTGPKSSGGLGLQLPLIVRFPDVLKNRLECLQSAFDYAIKSQGYDSHYQGVYPVKCNQDRFVVEDIVKFGSSFRFGLEAGSKPEILLAMSCLCKGSPDAFLVCNGFKDAEYISLALLGRKLALNTVIVLEQEEELDLVIELSQKMNVRPVIGLRAKLRTKHSGHFGSTSGEKGKFGLTTTQIVRVVRKLRQSGMLDCLQLLHFHIGSQIPSTSLLSDGVAEAAQLYCELVRLGAHMKVIDIGGGLGIDYDGSKSGESDLSVAYSLEEYAEAVVASVRVVCDRSSVKHPVICSESGRAIVSHHSVLIFEAVSADKPMVHQATPGDIQFLLEGNEEARANYEDLYAAVMRGDHESCLLYVDQLKQRCVEGFKEGVLSIEQLASVDGLCEWVLKAIGASDPVHTYNINLSVFTSIPDLWGIDQLFPIVPIHKLDQRPGARGILSDLTCDSDGKINKFIGGESSLPLHELDKNGSGGRYFLGMFLGGAYEEALGGVHNLFGGPSVVRVSQSDGPHSFAVTRAVPGQSSADVLRAMQHEPELMFQTLKHRAEEMMHTKGGSEGENEEEEEDDEFNNVAASLDRSFHNMPYLATEQASPSNSLSAAISNLGFYYCDEDVYDYISA | failed
17 | MSSERIVELIKEIYLDFRKGNFKEALVKSEEAHSLDFDNIEILTALKSSVYWNGQVESLDRIGQDYEKAEFLIREWNNFAGRYLKKMGCNFLQGRNSIKYFVFQTCLYIYKNIYKMHPENLDLLIKIAKSYKGMGNYERAINVFLQILGDFKDNSDVVAELADSYALVDEIKEAKVLFREAFFINPQKIDIYSLESDMILRLIDLIKSDRNISDDLIKEWIPVYGSLNGVFNIKRELRPIELGQLKQSVYSLRNELKEKSYRSINESILLPRLINKYFWLIDHYVRIKEDRARIDEILLYIKEIDLGIYQQYVN | failed
18 | MQQFHIRRLREEDIPLLKGLLVELDTSHYEAEPNFYRSPEEMAQLREERGVFDKYFDDSMIAFIACSHRQVVGFISGTVRDIDSMVSVAKRVGFVNELVVSESHRNLGIGLSLMDKIESDLCNQGIEEIGLTVASFNHEGEDFYHKMGYRVMTKMMSKRVKDLEHHHHHH | not failed
19 | MEVVVVGDAQAMAGRVPTVMHVRCPDRLREGVYRQVLELLTDLSPVVQALPPTAALVELKGALRYHGSEVHRLGEVLRVRTLSRLGVDVRVGIGPSITIAATASAQVPLPGGVLTVAPDDVTDWLAPLPGEALHGLGPRQAGALHEYGIHTVGLLAAVSPETVQRLLGGKAGRLAADRARGRDPRPVVPRALPAAATVRMRFDRHVLDGADVRAALLDLVVQLGRLLRRRGQAARAVSLTLQFAGGGSWEKSRRLPEPSAHDEDLRTMAYRLIDAAGLQRGRLTGLFLKADDLVDADRVAQQISLDQAREARLVAEATVDRVRDKFGPGVIGPAATARRAS | failed
20 | METTPVTSCTIIDATDRSIRQTLGETSTLARLIWVDAGLASPPLCSGLARCGRCRVRITEAAPAPHEDDREFFSAEDISAGWRLACRHAPAHGMVVHVPLPVMPHRHASRPKHPGPFRLAVDLGTTSLQWSLLAPDGTVAAQGSETNPQMGAGSDVMSRIAMARSDKGRGRLRELVLQALRRIVADVEGTPATADAVPPAGSGDEPTTACGYESRVEELCVAGNTAMTAILADESVEGLASAPYRLEMRGGTALALPGLPPAWIPPLPAPFVGGDLSAGYLAVLTDHAPAFPFVLADLGTNGEFVLALSPERTLVTSVALGPALEGIGLTFGTVAQRGAITSFTLTPGGLVPYVLDGGEADGISGTGYISLVHALLRAGLLDVDGRFIQSPSSPLAARMARSIVSHRGEPCLPLARGLYLAARDIEEILKVKAAFSLAFERLLATAQMPSHALSGIHLAGALGQHALPADLEGLGFIPPGSGGRTRAVGNTSLRGAELLLTSPPLRDTLNTWREGCTVVDLTAAPDFSAAFLRHMHFHFLEHHHHHH | failed

Reference: a protein production outcome set (Wang et al. 2014)
